Results from the supplement of paper PMC9112550, “Optimization of the antimicrobial peptide Bac7 by deep mutational scanning” (BMC Biology, 2022).

System: Escherichia coli TOP10
Experiment: shrunken log2 fold change of peptide-encoding DNA abundance (4.5 h post-induction vs induction); higher = less antimicrobial activity (less host growth inhibition)
Settings: time post-induction: 4.5 h; library: site-saturation at positions 5, 18, 19, 20
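Also: peptides expressed intracellularly from a pBAD plasmid library in pooled LB shake-flask culture, induced with 0.3% L-arabinose, DNA abundance read by NGS, three biological replicates, DESeq2 with apeglm shrinkage.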

Sequence | shrunken log2 fold change
RRIRGRPPRLPRPRPRPTQRPRP | 0.739
RRIRVRPPRLPRPRPRPNVYPRP | -0.787
RRIRYRPPRLPRPRPRPWIVPRP | -0.219
RRIRIRPPRLPRPRPRPFFNPRP | -0.501
RRIRKRPPRLPRPRPRPERIPRP | 0.00934
RRIRHRPPRLPRPRPRPEDPPRP | 0.0512
RRIRKRPPRLPRPRPRPFTPPRP | 0.0993
RRIRYRPPRLPRPRPRPKCKPRP | -0.161
RRIRVRPPRLPRPRPRPESFPRP | -0.0103
RRIRERPPRLPRPRPRPWDRPRP | -0.146
RRIRNRPPRLPRPRPRPCTWPRP | 0.0117
RRIRRRPPRLPRPRPRPMATPRP | 0.609
RRIRNRPPRLPRPRPRPCMKPRP | -0.507
RRIRLRPPRLPRPRPRPAASPRP | 0.0421
RRIRIRPPRLPRPRPRPGVMPRP | -0.346
RRIRIRPPRLPRPRPRPATVPRP | -0.319
RRIRGRPPRLPRPRPRPCNFPRP | 0.138
RRIRDRPPRLPRPRPRPQHEPRP | -0.00197
RRIRIRPPRLPRPRPRPNSNPRP | -0.983
RRIRMRPPRLPRPRPRPKCLPRP | 0.148
RRIRFRPPRLPRPRPRPVGYPRP | -0.129
RRIRQRPPRLPRPRPRPLYEPRP | -0.671
RRIRGRPPRLPRPRPRPGTHPRP | 0.508
RRIRNRPPRLPRPRPRPLGLPRP | -0.0325
RRIRWRPPRLPRPRPRPFDFPRP | -0.159

Sequence | shrunken log2 fold change
RRIRFRPPRLPRPRPRPYPTPRP | -0.324
RRIRARPPRLPRPRPRPWGNPRP | 0.00277
RRIRDRPPRLPRPRPRPLIWPRP | 0.176
RRIRYRPPRLPRPRPRPMGWPRP | -0.134
RRIRTRPPRLPRPRPRPPMDPRP | 0.15
RRIRRRPPRLPRPRPRPIQLPRP | -0.407
RRIRKRPPRLPRPRPRPVWGPRP | 3.44
RRIRERPPRLPRPRPRPHHNPRP | -0.817
RRIRARPPRLPRPRPRPSAFPRP | 0.54
RRIRGRPPRLPRPRPRPACVPRP | 0.81
RRIRSRPPRLPRPRPRPCCYPRP | 0.145
RRIRARPPRLPRPRPRPGCEPRP | 1.1
RRIRIRPPRLPRPRPRPCQRPRP | -0.268
RRIRRRPPRLPRPRPRPQWKPRP | 0.016
RRIRGRPPRLPRPRPRPEPFPRP | 0.218
RRIRFRPPRLPRPRPRPCRLPRP | -0.209
RRIRARPPRLPRPRPRPKHSPRP | 0.0875
RRIRNRPPRLPRPRPRPYHCPRP | -0.0116
RRIRARPPRLPRPRPRPAAAPRP | 1.11
RRIRARPPRLPRPRPRPHQFPRP | -0.024
RRIRKRPPRLPRPRPRPLMWPRP | 0.284
RRIRARPPRLPRPRPRPGEAPRP | 0.942
RRIRIRPPRLPRPRPRPDDKPRP | -0.266
RRIRPRPPRLPRPRPRPQEHPRP | -0.225
RRIRSRPPRLPRPRPRPIIQPRP | -0.429

Sequence | shrunken log2 fold change
RRIRGRPPRLPRPRPRPLCNPRP | 0.388
RRIRNRPPRLPRPRPRPPTKPRP | 0.46
RRIRTRPPRLPRPRPRPVQLPRP | -0.16
RRIRQRPPRLPRPRPRPDHMPRP | 0.0119
RRIRTRPPRLPRPRPRPTNNPRP | -0.618
RRIRCRPPRLPRPRPRPGHYPRP | -0.0646
RRIRDRPPRLPRPRPRPFANPRP | -0.177
RRIRDRPPRLPRPRPRPPYTPRP | -0.0539
RRIRSRPPRLPRPRPRPWWSPRP | -0.237
RRIRVRPPRLPRPRPRPVWRPRP | 0.309
RRIRDRPPRLPRPRPRPERFPRP | 0.361
RRIRHRPPRLPRPRPRPESMPRP | 0.0353
RRIRKRPPRLPRPRPRPENCPRP | 0.654
RRIRLRPPRLPRPRPRPIIFPRP | -0.288
RRIRMRPPRLPRPRPRPWLAPRP | 0.0737
RRIRWRPPRLPRPRPRPGRYPRP | -0.137
RRIRVRPPRLPRPRPRPIGHPRP | -0.426
RRIRERPPRLPRPRPRPMLDPRP | 0.0349
RRIRDRPPRLPRPRPRPGKDPRP | -0.0503
RRIRVRPPRLPRPRPRPKQGPRP | 0.0222
RRIRTRPPRLPRPRPRPCAYPRP | -0.164
RRIRHRPPRLPRPRPRPLTTPRP | -0.142
RRIRSRPPRLPRPRPRPHFVPRP | -0.0872
RRIRRRPPRLPRPRPRPVRMPRP | 0.497
RRIRYRPPRLPRPRPRPQLNPRP | -1.15

Sequence | shrunken log2 fold change
RRIRMRPPRLPRPRPRPRFIPRP | -0.154
RRIRTRPPRLPRPRPRPEYVPRP | 0.0172
RRIRLRPPRLPRPRPRPPEWPRP | 0.682
RRIRCRPPRLPRPRPRPDKCPRP | -0.325
RRIRARPPRLPRPRPRPFMDPRP | 0.00846
RRIRERPPRLPRPRPRPIVNPRP | -0.0349
RRIRMRPPRLPRPRPRPVSQPRP | 0.712
RRIRPRPPRLPRPRPRPKTDPRP | -0.0446
RRIRKRPPRLPRPRPRPKFIPRP | -1.04
RRIRWRPPRLPRPRPRPMDNPRP | -0.0894
RRIRCRPPRLPRPRPRPATYPRP | -0.389
RRIRYRPPRLPRPRPRPKLCPRP | -0.0301
RRIRFRPPRLPRPRPRPGYMPRP | -0.922
RRIRLRPPRLPRPRPRPSRMPRP | -0.241
RRIRFRPPRLPRPRPRPFEYPRP | -0.281
RRIRPRPPRLPRPRPRPFNTPRP | 0.39
RRIRTRPPRLPRPRPRPTCMPRP | -0.262
RRIRHRPPRLPRPRPRPHGCPRP | -0.0438
RRIRFRPPRLPRPRPRPTVFPRP | -0.0947
RRIRRRPPRLPRPRPRPRLPPRP | 0.663
RRIRFRPPRLPRPRPRPPYDPRP | -0.49
RRIRHRPPRLPRPRPRPQNDPRP | 0.0173
RRIRKRPPRLPRPRPRPRIAPRP | 0.599
RRIRERPPRLPRPRPRPTNRPRP | -0.242
RRIRPRPPRLPRPRPRPKVRPRP | 0.161

Sequence | shrunken log2 fold change
RRIRSRPPRLPRPRPRPWWPPRP | 0.0626
RRIRHRPPRLPRPRPRPFLSPRP | -0.187
RRIRKRPPRLPRPRPRPFYCPRP | -0.0322
RRIRARPPRLPRPRPRPIEWPRP | 0.638
RRIRKRPPRLPRPRPRPQITPRP | -0.0657
RRIRTRPPRLPRPRPRPEMVPRP | 0.134
RRIRWRPPRLPRPRPRPMETPRP | 1.73
RRIRLRPPRLPRPRPRPPWRPRP | 0.445
RRIRRRPPRLPRPRPRPKMCPRP | -0.0385
RRIRCRPPRLPRPRPRPWSSPRP | 0.615
RRIRKRPPRLPRPRPRPLLQPRP | 0.31
RRIRERPPRLPRPRPRPIMSPRP | -0.38
RRIRSRPPRLPRPRPRPQSWPRP | 0.722
RRIRQRPPRLPRPRPRPHAWPRP | 0.157
RRIRPRPPRLPRPRPRPMYKPRP | -0.323
RRIRDRPPRLPRPRPRPKMFPRP | 0.00408
RRIRKRPPRLPRPRPRPEWVPRP | 0.478
RRIRCRPPRLPRPRPRPSYSPRP | -1.04
RRIRKRPPRLPRPRPRPPSTPRP | 0.661
RRIRRRPPRLPRPRPRPLAFPRP | 0.448
RRIRDRPPRLPRPRPRPRLMPRP | 0.163
RRIRVRPPRLPRPRPRPIVPPRP | -0.349
RRIRPRPPRLPRPRPRPKWFPRP | 0.0432
RRIRWRPPRLPRPRPRPQDCPRP | -0.014
RRIRCRPPRLPRPRPRPTFPPRP | -0.0779

Sequence | shrunken log2 fold change
RRIRRRPPRLPRPRPRPHVNPRP | -0.0608
RRIRARPPRLPRPRPRPQDLPRP | -0.0381
RRIRNRPPRLPRPRPRPLPQPRP | 0.229
RRIRGRPPRLPRPRPRPMDEPRP | 0.237
RRIRSRPPRLPRPRPRPQGNPRP | -0.679
RRIRLRPPRLPRPRPRPWQTPRP | -0.0245
RRIRLRPPRLPRPRPRPTHSPRP | 0.122
RRIRMRPPRLPRPRPRPCCMPRP | -0.167
RRIRIRPPRLPRPRPRPRVFPRP | 0.0961
RRIRMRPPRLPRPRPRPWFRPRP | -0.305
RRIRMRPPRLPRPRPRPRWHPRP | 0.378
RRIRWRPPRLPRPRPRPPYRPRP | 3.11
RRIRMRPPRLPRPRPRPWKNPRP | 0.0328
RRIRYRPPRLPRPRPRPMGPPRP | -0.121
RRIRYRPPRLPRPRPRPYKVPRP | -0.0075
RRIRTRPPRLPRPRPRPVEIPRP | -0.2
RRIRMRPPRLPRPRPRPGAKPRP | 1.48
RRIRWRPPRLPRPRPRPHTYPRP | -0.578
RRIRFRPPRLPRPRPRPPLQPRP | 0.353
RRIRLRPPRLPRPRPRPVFMPRP | -0.203
RRIRTRPPRLPRPRPRPISEPRP | 0.00252
RRIRDRPPRLPRPRPRPFMSPRP | -0.0203
RRIRWRPPRLPRPRPRPILGPRP | -0.0119
RRIRLRPPRLPRPRPRPSCGPRP | -0.583
RRIRYRPPRLPRPRPRPNIEPRP | -0.801
